In the supplement of paper PMC10899765:

How the values were obtained:
Conditions in all cases: 20 nM; 72 h
[1] = system: MCF10A; test: one-nucleolus phenotype percent effect (relative to siNT 0% and siNOL11 100%); higher = more cells with one nucleolus (ribosome biogenesis inhibition)
Experimental: (§1)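 After 72 h, cells were fixed and stained with Hoechst and anti-fibrillarin, and nucleoli per nucleus were counted with CellProfiler. Values are plate-adjusted percent effect for the one-nucleolus and 5+ nucleoli phenotypes, normalised to siNT (0%) and to the positive controls siNOL11 or siKIF11 (100%), as the mean of biological triplicates. Percent viability is the nuclei count relative to siNT.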

[2] = system: MCF10A; test: percent viability (nuclei count relative to siNT); higher = more viable cells
Experimental: as §1

[3] = system: MCF10A; test: 5+ nucleoli phenotype percent effect (relative to siNT 0% and siKIF11 100%); higher = more cells with five or more nucleoli
Experimental: as §1

| Sequence | one-nucleolus phenotype percent effect [1] | percent viability [2] | 5+ nucleoli phenotype percent effect [3] |
| --- | --- | --- | --- |
| GUGAGUCUCUAAGAAAAGAGGA [hsa-miR-627] | -10.4% | 62.9% | 7.75% |
| GUGAGUGGGAGCCCCAGUGUGUG [hsa-miR-1238-5p] | -21.4% | 95.1% | 22.1% |
| GUGAGUGGGAGCCGGUGGGGCUG [hsa-miR-4758-5p] | -17.7% | 107% | 48.5% |
| GUGAGUGUGGAUCCUGGAGGAAU [hsa-miR-4658] | -8.09% | 52.7% | 0.899% |
| GUGAGUGUGGAUUUGGCGGGGUU [hsa-miR-6790-5p] | 18.2% | 31.8% | -26% |
| GUGCAAAAGUCAUCACGGUU [hsa-miR-548aw] | -0.384% | 57.6% | -29.9% |
| GUGCAUGGCUGUAUAUAUAACA [hsa-miR-5011-3p] | 0.75% | 56.9% | 19.5% |
| GUGCAUUGCUGUUGCAUUGC [hsa-miR-33b-5p] | -2.4% | 48.5% | 36% |
| GUGCAUUGUAGUUGCAUUGCA [hsa-miR-33a-5p] | -0.977% | 46% | -0.156% |
| GUGCCACCUUAACUGCAGCCAAU [hsa-miR-4715-3p] | 6.34% | 53.4% | -23.5% |
| GUGCCAGCUGCAGUGGGGGAG [hsa-miR-1202] | -8.53% | 76.5% | 44.3% |
| GUGCGGAACGCUGGCCGGGGCG [hsa-miR-6850-5p] | 5.11% | 45.3% | -19.5% |
| GUGCGUGGUGGCUCGAGGCGGGG [hsa-miR-6821-5p] | -27.7% | 82.1% | 24.3% |
| GUGCUUCAUCGUAAUUAACCUUA [hsa-miR-3977] | 2.65% | 49% | -18.9% |
| GUGGAAAGCAUGCAUCCAGGGUGU [hsa-miR-3978] | 15% | 61.1% | -30.5% |
| GUGGACCAGGAUGGCAAGGGCU [hsa-miR-4776-5p] | -5.58% | 77.7% | 14.5% |
| GUGGACCUGGCUGGGAC [hsa-miR-4535] | -11% | 65.5% | 17.4% |
| GUGGAGUCCUGGGGAAUGGAGA [hsa-miR-3198] | 22% | 25.5% | -28.7% |
| GUGGCUCUGUAGUAAGAUGGA [hsa-miR-8057] | 6.14% | 44.7% | 6.17% |
| GUGGCUGCACUCACUUCCUUC [hsa-miR-647] | 33.1% | 46% | -9.97% |

| Sequence | one-nucleolus phenotype percent effect [1] | percent viability [2] | 5+ nucleoli phenotype percent effect [3] |
| --- | --- | --- | --- |
| GUGGGAUUUCUGAGUAGCAUC [hsa-miR-5089-5p] | 3.12% | 36.5% | -4.04% |
| GUGGGCGGGGGCAGGUGUGUG [hsa-miR-1228-5p] | -5.58% | 64.8% | 15.3% |
| GUGGGCUGGGCUGGGCUGGGCC [hsa-miR-3620-5p] | 27.5% | 31.3% | -31.1% |
| GUGGGGCCAGGCGGUGG [hsa-miR-1227-5p] | -31% | 78.5% | 55.1% |
| GUGGGGGAGAGGCUGUC [hsa-miR-1275] | 43% | 20.5% | -28.2% |
| GUGGGUACGGCCCAGUGGGGGG [hsa-miR-1225-5p] | -23.1% | 94.3% | 64.9% |
| GUGGGUAGGGUUUGGGGGAGAGCG [hsa-miR-1229-5p] | -23.1% | 67.9% | 53.7% |
| GUGGGUGCUGGUGGGAGCCGUG [hsa-miR-6741-5p] | 6.09% | 43.5% | -22.2% |
| GUGGGUUGGGGCGGGCUCUG [hsa-miR-3940-5p] | -5.1% | 52.7% | -4.07% |
| GUGGUCUCUUGGCCCCCAG [hsa-miR-6848-3p] | -17.9% | 77.3% | 34.8% |
| GUGGUUAUCCCUGCUGUGUUCG [hsa-miR-487a-5p] | -14.4% | 42% | 24.8% |
| GUGGUUAUCCCUGUCCUGUUCG [hsa-miR-487b-5p] | -1.37% | 37.4% | 17.4% |
| GUGUCUGCUUCCUGUGGGA [hsa-miR-632] | 31.3% | 37% | -24.2% |
| GUGUCUGGGCGGACAGCUGC [hsa-miR-1231] | 62.4% | 39.3% | -15.6% |
| GUGUCUUUUGCUCUGCAGUCA [hsa-miR-511] | -6.61% | 55.3% | -3.71% |
| GUGUGACCACCGUUCCUGCAG [hsa-miR-6808-3p] | 28.3% | 27.3% | -25.4% |
| GUGUGCGGAAAUGCUUCUGCUA [hsa-miR-147b] | -12.4% | 70.3% | 33.7% |
| GUGUGGAAGAUGGGAGGAGAAA [hsa-miR-6833-5p] | -3.83% | 49.8% | 4.29% |
| GUGUGGCCGGCAGGCGGGUGG [hsa-miR-7108-5p] | -12.6% | 55.9% | 6.78% |
| GUGUUAAUUAAACCUCUAUUUAC [hsa-miR-2053] | -1.87% | 91.5% | 3.14% |

| Sequence | one-nucleolus phenotype percent effect [1] | percent viability [2] | 5+ nucleoli phenotype percent effect [3] |
| --- | --- | --- | --- |
| GUGUUCUCUGAUGGACAG [hsa-miR-4273] | -6.59% | 49.3% | 10.3% |
| GUGUUGAAACAAUCUCUACUG [hsa-miR-653] | -22.2% | 169% | 38.1% |
| GUUAGGGCCAACAUCUCUUGG [hsa-miR-2909] | -6.14% | 48.3% | 5.52% |
| GUUCAAAUCCAGAUCUAUAAC [hsa-miR-607] | -23.2% | 111% | 34.2% |
| GUUCCACACUGACACUGCAGAAGU [hsa-miR-3692-3p] | -3.86% | 49.6% | 6.05% |
| GUUCCUGCUGAACUGAGCCAG [hsa-miR-3074-5p] | -7.07% | 42.2% | -17.7% |
| GUUCUGUUAACCCAUCCCCUCA [hsa-miR-4652-3p] | 16% | 28.2% | -42.7% |
| GUUGGGACAAGAGGACGGUCUU [hsa-miR-3122] | -20.5% | 87.3% | 22.1% |
| GUUGGGGUGCAGGGGUCUGCU [hsa-miR-5572] | 43.3% | 19.7% | -19.8% |
| GUUGUGUCAGUUUAUCAAAC [hsa-miR-599] | -13.5% | 84.3% | 29.3% |
| GUUUAACCUUUUGCCUGUUGG [hsa-miR-552-5p] | -29.8% | 98.1% | 32% |
| GUUUCACCAUGUUGGUCAGGC [hsa-miR-5096] | 21.9% | 49% | -17.6% |
| GUUUGCACGGGUGGGCCUUGUCU [hsa-miR-557] | 34.6% | 47.7% | -30.1% |
| GUUUGGACAUAGUGUGGCUGG [hsa-miR-7850-5p] | -32.7% | 115% | 49.1% |
| GUUUUACCACCUCCAGGAGACU [hsa-miR-2681-5p] | -33.4% | 36% | 3.14% |
| UAAAAACUGCAAUUACUUUUA [hsa-miR-548aj-3p] | -18.5% | 115% | 35.3% |
| UAAAACCCACAAUUAUGUUUGU [hsa-miR-548as-3p] | 25.3% | 149% | -6.8% |
| UAAAACUGCAGUUAUUUUUGC [hsa-miR-548ar-3p] | -24.2% | 122% | 38.3% |
| UAAAACUUUAAGUGUGCCUAGG [hsa-miR-5582-3p] | -11.3% | 72.9% | 7.07% |
| UAAAAUUUGCAUCCAGGA [hsa-miR-4282] | -28.5% | 66% | 22.1% |
